Measurements taken from patent US20190225698A1 (published 2019).
Read-outs that look alike come from different tables or passages of the source. Values belong to the binder of their own block, whether it stands above or below them.

Experiments:
human CD27-His = assay: SPR
[1] = biological target: T1, murine CD27 expressed on the cell surface of transfected HEK293 cells (murine, UniProt P41272 24-250); assay: flow cytometry
T1 chain: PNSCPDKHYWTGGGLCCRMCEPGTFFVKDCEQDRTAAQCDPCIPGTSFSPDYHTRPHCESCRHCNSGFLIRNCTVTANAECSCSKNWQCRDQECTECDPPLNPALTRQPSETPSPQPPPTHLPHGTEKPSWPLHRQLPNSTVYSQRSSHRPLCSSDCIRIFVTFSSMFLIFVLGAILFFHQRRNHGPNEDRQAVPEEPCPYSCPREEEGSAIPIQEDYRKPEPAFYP

[2] = biological target: T2, human CD27 expressed on the cell surface of transfected HEK293 cells (human, UniProt P26842 20-260); assay: flow cytometry
[3] = biological target: T3, rhesus monkey CD27-Fc protein (rhesus monkey); assay: BLI
T3 chain: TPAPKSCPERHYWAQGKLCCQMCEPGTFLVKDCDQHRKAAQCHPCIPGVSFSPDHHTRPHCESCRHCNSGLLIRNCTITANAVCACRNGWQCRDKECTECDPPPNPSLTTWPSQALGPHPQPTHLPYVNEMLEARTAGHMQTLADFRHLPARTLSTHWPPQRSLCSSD

[4] = biological target: T4, murine CD27-FcHis fusion protein (murine, UniProt P41272 24-182); assay: SPR
T4 chain: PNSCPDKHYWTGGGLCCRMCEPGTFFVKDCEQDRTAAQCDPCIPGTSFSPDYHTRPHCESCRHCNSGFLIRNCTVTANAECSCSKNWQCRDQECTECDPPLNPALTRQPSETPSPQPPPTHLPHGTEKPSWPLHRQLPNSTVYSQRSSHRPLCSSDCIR

[5] = biological target: T1, murine CD27 expressed on the cell …; assay: flow cytometry
[6] = biological target: T2, human CD27 expressed on the cell …; assay: flow cytometry; remark: listed apart in the source
[7] = biological target: T5, human CD27-HisFc fusion protein (human, UniProt P26842 20-192); assay: BLI
T5 chain: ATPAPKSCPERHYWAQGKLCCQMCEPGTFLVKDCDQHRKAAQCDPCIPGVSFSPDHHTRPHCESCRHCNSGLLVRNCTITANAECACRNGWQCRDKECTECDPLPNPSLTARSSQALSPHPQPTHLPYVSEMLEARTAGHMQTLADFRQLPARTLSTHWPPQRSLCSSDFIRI

Kd [1]: 31 nM | Kd [2]: 0.56 nM | Kd [3]: 2.13 nM
B2: reference antibody 1F5 (antibody, V domains shown)
VH: QVQLVESGGGVVQPGRSLRLSCAASGFTFSSYDMHWVRQAPGKGLEWVAVIWYDGSNKYYADSVKGRFTISRDNSKNTLYLQMNSLRAEDTAVYYCARGSGNWGFFDYWGQGTLVTVSS
VL: DIQMTQSPSSLSASVGDRVTITCRASQGISRWLAWYQQKPEKAPKSLIYAASSLQSGVPSRFSGSGSGTDFTLTISSLQPEDFATYYCQQYNTYPRTFGQGTKVEIK

Kd (human CD27-His): 0.137 nM
B7: mAb077-IgG (antibody, V domains shown)
VH: EVQLVESGGGLVQPGGSLRLSCAASGFTFSGYGIHWVRQAPGKGLEWIGWINPNRGSTKYAQKFQGRVTISRDNSKNTLYLQLNSLRAEDTAVYYCARDPGYTWYFDVWGQGTLVTVSS
VL: DIQLTQSPSSLSASVGDRVTITCRASQDISSDLAWYQQKPGKAPKLLIYAASTLQSGVPSRFSGSGSGTDFTLTISSLQPEDFATYYCQQRDAWPPTFGQGTKVEIK

Kd [7]: 4.08 nM
B8: mAb077 antibody Fab fragment with C-terminal histidine tag (Fab, V domains shown)
VH: EVQLVESGGGLVQPGGSLRLSCAASGFTFSGYGIHWVRQAPGKGLEWIGWINPNRGSTKYAQKFQGRVTISRDNSKNTLYLQLNSLRAEDTAVYYCARDPGYTWYFDVWGQGTLVTVSS
VL: DIQLTQSPSSLSASVGDRVTITCRASQDISSDLAWYQQKPGKAPKLLIYAASTLQSGVPSRFSGSGSGTDFTLTISSLQPEDFATYYCQQRDAWPPTFGQGTKVEIK

Further lines, the binder ahead of its results:

B1: 1F5-IgG (antibody, V domains shown)
VH: QVQLVESGGGVVQPGRSLRLSCAASGFTFSSYDMHWVRQAPGKGLEWVAVIWYDGSNKYYADSVKGRFTISRDNSKNTLYLQMNSLRAEDTAVYYCARGSGNWGFFDYWGQGTLVTVSS
VL: DIQMTQSPSSLSASVGDRVTITCRASQGISRWLAWYQQKPEKAPKSLIYAASSLQSGVPSRFSGSGSGTDFTLTISSLQPEDFATYYCQQYNTYPRTFGQGTKVEIK
Kd (human CD27-His): 1.39 nM

B3: anti-CD27 antibody mAb077 (IgG1 form) (antibody, V domains shown)
VH: EVQLVESGGGLVQPGGSLRLSCAASGFTFSGYGIHWVRQAPGKGLEWIGWINPNRGSTKYAQKFQGRVTISRDNSKNTLYLQLNSLRAEDTAVYYCARDPGYTWYFDVWGQGTLVTVSS
VL: DIQLTQSPSSLSASVGDRVTITCRASQDISSDLAWYQQKPGKAPKLLIYAASTLQSGVPSRFSGSGSGTDFTLTISSLQPEDFATYYCQQRDAWPPTFGQGTKVEIK
Kd [4]: 0.0304 nM | Kd [3]: 0.562 nM

B4: mAb076-IgG (antibody, V domains shown)
VH: EVQLVESGGGLVQPGGSLRLSCAASGFTFSDYGIHWVRQAPGKGLEWIGWINPNRGSTNYAQKFQGRVTISRDNSKNTLYLQLNSLRAEDTAVYYCARDYGYTWYFDVWGQGTLVTVSS
VL: DIQLTQSPSSLSASVGDRVTITCRASQDISSVLAWYQQKPGKAPKLLIYAASSLQSGVPSRFSGSGSGTDFTLTISSLQPEDFATYYCQQRDAWPLTFGQGTKVEIK
Kd (human CD27-His): 0.332 nM

B5: anti-CD27 antibody mAb076 (IgG1 form) (antibody, V domains shown)
VH: EVQLVESGGGLVQPGGSLRLSCAASGFTFSDYGIHWVRQAPGKGLEWIGWINPNRGSTNYAQKFQGRVTISRDNSKNTLYLQLNSLRAEDTAVYYCARDYGYTWYFDVWGQGTLVTVSS
VL: DIQLTQSPSSLSASVGDRVTITCRASQDISSVLAWYQQKPGKAPKLLIYAASSLQSGVPSRFSGSGSGTDFTLTISSLQPEDFATYYCQQRDAWPLTFGQGTKVEIK
Kd [5]: 0.3 nM | Kd [6]: 0.16 nM | Kd [4]: 0.0754 nM | Kd [3]: < 0.001 nM

B6: mAb076 antibody Fab fragment with C-terminal histidine tag (Fab, V domains shown)
VH: EVQLVESGGGLVQPGGSLRLSCAASGFTFSDYGIHWVRQAPGKGLEWIGWINPNRGSTNYAQKFQGRVTISRDNSKNTLYLQLNSLRAEDTAVYYCARDYGYTWYFDVWGQGTLVTVSS
VL: DIQLTQSPSSLSASVGDRVTITCRASQDISSVLAWYQQKPGKAPKLLIYAASSLQSGVPSRFSGSGSGTDFTLTISSLQPEDFATYYCQQRDAWPLTFGQGTKVEIK
Kd [7]: 1.61 nM
